Source: article PMC11809415 (The Journal of Cell Biology, 2025)

Biological target: F-actin (rabbit skeletal muscle α-actin filaments) (rabbit, UniProt P68135 1-377)
Test: co-sedimentation; 2 µM F-tractinopt-mCherry fusions incubated with F-actin at increasing concentrations for 5 min at room temperature, 120,000 g for 20 min at 4°C; supernatant and pellet on SDS-PAGE, densitometry; Kd by GraphPad Prism
Conditions: both partners purified

B1: F-tractinopt–mCherry fusion (domain or fragment)
chain: APRRSVGELRLLFEARAASAA
notes: rat inositol 1,4,5-trisphosphate 3-kinase A; numbers count on: the 43-residue F-tractin peptide (peptide residue n = kinase residue n+9); source: E. coli BL21-CodonPlus(DE3)-RIPL, purified (Protino Ni-IDA resin)
  Kd: 8.5 ± 1.2 µM
